How the values were obtained:
[1] = biological target: recombinant human OX40 fused to a His-tag (Acro Biosystems, cat. no. OX0-H5224) (human) (UniProt P43489); experiment: BLI cross-block; first Ab (competitor): IgG1-CD134-IBI101
[2] = biological target: recombinant human OX40 fused to a His-tag (Acro Biosystems, cat. no. OX0-H5224) (human) (UniProt P43489); experiment: BLI cross-block; first Ab (competitor): IgG1-CD134-Hu106
[3] = biological target: recombinant human OX40 fused to a His-tag (Acro Biosystems, cat. no. OX0-H5224) (human) (UniProt P43489); experiment: BLI cross-block; first Ab (competitor): IgG1-CD134-h3C8
[4] = biological target: recombinant human OX40 fused to a His-tag (Acro Biosystems, cat. no. OX0-H5224) (human) (UniProt P43489); experiment: BLI cross-block; first Ab (competitor): IgG1-CD134-003
[5] = biological target: recombinant human OX40 fused to a His-tag (Acro Biosystems, cat. no. OX0-H5224) (human) (UniProt P43489); experiment: BLI cross-block; first Ab (competitor): IgG1-CD134-ABBV368
[6] = biological target: human OX40 with mouse CRD1 (human with mouse CRD1) (UniProt P43489); experiment: flow cytometry, transfected ExpiCHO-S cells, gMFI (PE)
Sequence of human OX40 with mouse CRD1 (human with mouse CRD1) (P43489 other isoform, or with tags, fused parts or gaps limits assumed): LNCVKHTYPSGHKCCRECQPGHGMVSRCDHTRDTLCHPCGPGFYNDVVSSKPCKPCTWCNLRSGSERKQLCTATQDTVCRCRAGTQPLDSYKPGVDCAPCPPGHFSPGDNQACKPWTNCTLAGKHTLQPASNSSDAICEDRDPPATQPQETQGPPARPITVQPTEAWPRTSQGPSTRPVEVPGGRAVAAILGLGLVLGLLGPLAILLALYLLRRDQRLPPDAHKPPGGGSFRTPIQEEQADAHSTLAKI

[7] = biological target: recombinant human OX40 fused to a His-tag (Acro Biosystems, cat. no. OX0-H5224) (human) (UniProt P43489); experiment: BLI cross-block; first Ab (competitor): IgG1-CD134-11D4
[8] = biological target: recombinant human OX40 fused to a His-tag (Acro Biosystems, cat. no. OX0-H5224) (human) (UniProt P43489); experiment: BLI cross-block; first Ab (competitor): IgG1-CD134-GBR830
[9] = biological target: recombinant human OX40 fused to a His-tag (Acro Biosystems, cat. no. OX0-H5224) (human) (UniProt P43489); experiment: BLI cross-block; first Ab (competitor): IgG1-CD134-007
[10] = biological target: recombinant human OX40 fused to a His-tag (Acro Biosystems, cat. no. OX0-H5224) (human) (UniProt P43489); experiment: BLI cross-block; first Ab (competitor): IgG1-CD134-49B4-RRE
[11] = biological target: recombinant human OX40 fused to a His-tag (Acro Biosystems, cat. no. OX0-H5224) (human) (UniProt P43489); experiment: BLI cross-block; first Ab (competitor): IgG1-CD134-INCAGN1949
[12] = biological target: recombinant human OX40 fused to a His-tag (Acro Biosystems, cat. no. OX0-H5224) (human) (UniProt P43489); experiment: BLI cross-block; first Ab (competitor): IgG1-CD134-003-HC6LC2-RR
[13] = biological target: recombinant human OX40 fused to a His-tag (Acro Biosystems, cat. no. OX0-H5224) (human) (UniProt P43489); experiment: BLI cross-block; first Ab (competitor): IgG1-CD134-MEDI0562
[14] = biological target: recombinant human OX40 fused to a His-tag (Acro Biosystems, cat. no. OX0-H5224) (human) (UniProt P43489); experiment: BLI cross-block; first Ab (competitor): IgG1-CD134-RG7888
[15] = biological target: recombinant human OX40 fused to a His-tag (Acro Biosystems, cat. no. OX0-H5224) (human) (UniProt P43489); experiment: BLI cross-block; first Ab (competitor): IgG1-CD134-012
[16] = biological target: recombinant human OX40 fused to a His-tag (Acro Biosystems, cat. no. OX0-H5224) (human) (UniProt P43489); experiment: BLI cross-block; first Ab (competitor): IgG1-CD134-A4453
[17] = biological target: recombinant human OX40 fused to a His-tag (Acro Biosystems, cat. no. OX0-H5224) (human) (UniProt P43489); experiment: BLI cross-block; first Ab (competitor): IgG1-CD134-SF2

Sequence of recombinant human OX40 fused to a His-tag (Acro Biosystems, cat. no. OX0-H5224) (human) (P43489 29-214 limits assumed): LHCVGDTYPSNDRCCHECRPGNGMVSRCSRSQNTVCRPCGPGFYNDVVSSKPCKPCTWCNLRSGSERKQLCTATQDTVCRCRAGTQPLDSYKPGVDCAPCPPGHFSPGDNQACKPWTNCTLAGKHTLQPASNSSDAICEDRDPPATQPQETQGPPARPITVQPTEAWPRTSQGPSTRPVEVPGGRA
Sequence of IgG1-CD134-IBI101 (antibody) (VH): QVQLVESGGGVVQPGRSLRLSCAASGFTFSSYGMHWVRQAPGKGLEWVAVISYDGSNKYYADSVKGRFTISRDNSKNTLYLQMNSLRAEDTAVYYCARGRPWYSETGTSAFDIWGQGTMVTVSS
Sequence of IgG1-CD134-IBI101 (antibody) (VL): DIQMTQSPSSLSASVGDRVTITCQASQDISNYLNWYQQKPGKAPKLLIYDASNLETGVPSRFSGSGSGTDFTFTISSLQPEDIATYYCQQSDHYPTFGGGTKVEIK

Substance	association response [1]	association response [2]	association response [3]	association response [4]	association response [5]	EC50 (read off the curve) [6]	association response [7]	association response [8]	association response [9]	association response [10]	association response [11]	association response [12]	association response [13]	association response [14]	association response [15]	association response [16]	association response [17]
IgG1-CD134-IBI101 (antibody)	0.01 nm	-0.02 nm	-0.03 nm	0.74 nm	-0.02 nm	0.07 µg/mL	0.15 nm	0.01 nm	0.02 nm	0 nm	0.02 nm	1.23 nm	0.26 nm	0.31 nm	0.82 nm	0.24 nm	0.07 nm
IgG1-CD134-INCAGN1949 (antibody)	0.01 nm	-0.01 nm	-0.02 nm	1.39 nm	-0.03 nm	0.09 µg/mL	0.11 nm	0.01 nm	0.55 nm	0 nm	0 nm	1.74 nm	0.01 nm	0.01 nm	0.73 nm	0.25 nm	0.02 nm
